{"source": "patent US20200291128A1", "about": "(ABEXXA BIOLOGICS, published 2020)", "target": "T1, HLA-E*0103 (recombinant, refolded with peptide into monomer complexes)", "T1 construct": "The paragraph names only the allele", "experiment": "peptide binding and peptide/HLA-E refold into monomer complexes"}
{"binder": "YLLPAIVHI", "note": "[peptide YLLPAIVHI from the protein RNA Helicase]", "values": [{"measurement": "binding result", "result": "binds"}]}
